The supplement of paper PMC10724198
± gives the standard deviation of the averaged measurements.

Tests used:
Saccharomyces cerevisiae [1] = assay: protein stability index of tFT-peptide fusion (C-terminal peptide) (PSI (0-1 scale)); higher = more stable (slower turnover)
Method: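 MPS profiling in S. cerevisiae of the tFT-X12 degron library: putative degron peptides plus stable controls, 12 aa, fused to the C-terminus of a sfGFP-mCherry timer. Cells are FACS-sorted into 8 mCherry/sfGFP bins and deep-sequenced. PSI runs from 0 (unstable) to 1 (stable). Backgrounds are wild type, das1Δ and doa10Δ at 30 °C, and wild type, das1Δ, cdc34-1 and cdc53-1 at 37 °C; 2-3 technical replicates each.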

Saccharomyces cerevisiae [2] = assay: as above; settings: genetic background: wild type; temperature: 30 C
[3] = genetic background: cdc34-1, temperature: 37 C
[4] = genetic background: cdc53-1, temperature: 37 C
[5] = genetic background: das1 deletion, temperature: 30 C
[6] = genetic background: das1 deletion, temperature: 37 C
[7] = genetic background: doa10 deletion, temperature: 30 C
[8] = genetic background: wild type, temperature: 30 C
[9] = genetic background: wild type, temperature: 37 C
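Note: PSI is a weighted mean of sequencing reads over stability bins, variants kept only with over 10 reads, mCherry proximal and sfGFP distal, peptide attached via GGGS linker.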

Row | Sequence | protein stability index (Saccharomyces cerevisiae [1]; [3]) | protein stability index (Saccharomyces cerevisiae [1]; [4]) | protein stability index (Saccharomyces cerevisiae [1]; [5]) | protein stability index (Saccharomyces cerevisiae [1]; [6]) | protein stability index (Saccharomyces cerevisiae [1]; [7]) | protein stability index (Saccharomyces cerevisiae [1]; [8]) | protein stability index (Saccharomyces cerevisiae [1]; [9]) | protein stability index (Saccharomyces cerevisiae [2])
1 | LWFRGGYLFFVV | 0.44378 ± 0.00022 | 0.444 ± 0.013 | 0.439 ± 0.025 | 0.499 ± 0.01 | 0.2 ± 0.013 | 0.185 ± 0.016 | 0.332 ± 0.0057 | 0.265 ± 0.043
2 | LWVTRVYCLLVC | 0.0444 ± 0.016 | 0.158 ± 0.03 | 0.168 ± 0.019 | 0.233 ± 0.019 | 0.0555 ± 0.02 | 0.0507 ± 0.015 | 0.0739 ± 0.015 | 0.0818 ± 0.0069
3 | LYIQWVSRWSVQ | 0.611 ± 0.029 | 0.664 ± 0.083 | 0.547 ± 0.035 | 0.669 ± 0.021 | 0.388 ± 0.011 | 0.415 ± 0.019 | 0.5818 ± 0.003 | 0.504 ± 0.025
4 | LYLCLVSPVVVL | 0.156 ± 0.011 | 0.172 ± 0.0061 | 0.226 ± 0.024 | 0.296 ± 0.0064 | 0.184 ± 0.011 | 0.204 ± 0.032 | 0.2571 ± 0.0014 | 0.296 ± 0.029
5 | LYLGCVLFVLFR | 0.197 ± 0.045 | 0.151 ± 0.024 | 0.216 ± 0.029 | 0.368 ± 0.0098 | 0.273 ± 0.0047 | 0.198 ± 0.024 | 0.312 ± 0.036 | 0.234 ± 0.054
6 | LYSVLWFCFPLV | 0.586 ± 0.039 | 0.5638 ± 0.0037 | 0.446 ± 0.025 | 0.577 ± 0.0076 | 0.442 ± 0.035 | 0.42 ± 0.024 | 0.55 ± 0.01 | 0.466 ± 0.028
7 | LYVLNILSFVCV | 0.1572 ± 0.0013 | 0.25 ± 0.0041 | 0.137 ± 0.013 | 0.251 ± 0.023 | 0.115 ± 0.0099 | 0.117 ± 0.017 | 0.207 ± 0.0027 | 0.1688 ± 0.00051
8 | MALAVRVVKCGA | 0.328 ± 0.016 | 0.376 ± 0.0062 | 0.275 ± 0.031 | 0.4361 ± 0.0027 | 0.221 ± 0.006 | 0.268 ± 0.034 | 0.397 ± 0.0054 | 0.384 ± 0.028
9 | MCRMYELYVTSS | 0.504 ± 0.046 | 0.568 ± 0.079 | 0.382 ± 0.034 | 0.588 ± 0.026 | 0.349 ± 0.025 | 0.374 ± 0.018 | 0.558 ± 0.016 | 0.467 ± 0.01
10 | MIILGFILYFFW | 0.4 ± 0.011 | 0.533 ± 0.03 | 0.332 ± 0.035 | 0.505 ± 0.018 | 0.352 ± 0.04 | 0.347 ± 0.034 | 0.444 ± 0.018 | 0.422 ± 0.033
11 | NAPSAIQKNKKC | 0.696 ± 0.016 | 0.6886 ± 0.0037 | 0.649 ± 0.036 | 0.71782 ± 0.00039 | 0.211 ± 0.016 | 0.281 ± 0.037 | 0.515 ± 0.08 | 0.433 ± 0.081
12 | NDSSWEVSLMVG | 0.693 ± 0.019 | 0.763 ± 0.021 | 0.616 ± 0.024 | 0.748 ± 0.0098 | 0.614 ± 0.041 | 0.62 ± 0.018 | 0.736 ± 0.028 | 0.363 ± 0.076
13 | NECLSSKWLRIC | 0.399 ± 0.013 | 0.661 ± 0.032 | 0.631 ± 0.029 | 0.726 ± 0.025 | 0.0791 ± 0.032 | 0.111 ± 0.039 | 0.147 ± 0.035 | 0.185 ± 0.0041
14 | NFKELMEKSKYR | 0.704 ± 0.02 | 0.752 ± 0.029 | 0.677 ± 0.019 | 0.763 ± 0.028 | 0.677 ± 0.061 | 0.665 ± 0.027 | 0.718 ± 0.012 | 0.719 ± 0.018
15 | NLTAIIYTLVVD | 0.2313 ± 0.0018 | 0.466 ± 0.23 | 0.218 ± 0.032 | 0.444 ± 0.018 | 0.197 ± 0.016 | 0.225 ± 0.028 | 0.3944 ± 0.00021 | 0.31 ± 0.015
16 | NQIIRLIVGLLC | 0.55 ± 0.039 | 0.601 ± 0.017 | 0.486 ± 0.017 | 0.5867 ± 0.0055 | 0.193 ± 0.014 | 0.224 ± 0.011 | 0.355 ± 0.02 | 0.291 ± 0.016
17 | PCLLRYLVHPFP | 0.687 ± 0.026 | 0.765 ± 0.021 | 0.648 ± 0.014 | 0.7439 ± 0.0017 | 0.65 ± 0.013 | 0.667 ± 0.0086 | 0.7159 ± 0.0025 | 0.75445 ± 0.00044
18 | PCPAPRPPSPSA | 0.664 ± 0.078 | 0.721 ± 0.05 | 0.653 ± 0.0096 | 0.715 ± 0.0076 | 0.668 ± 0.031 | 0.682 ± 0.023 | 0.694 ± 0.014 | 0.435 ± 0.03
19 | PDCRPPLVRCLL | 0.9585 ± 0.0082 | 0.902 ± 0.071 | 0.827 ± 0.028 | 0.9164 ± 0.0047 | 0.8334 ± 0.0043 | 0.822 ± 0.035 | 0.936 ± 0.019 | 0.796 ± 0.03
20 | PFALTPPPSPRS | 0.745 ± 0.011 | – | 0.384 ± 0.024 | 0.583 ± 0.0083 | 0.356 ± 0.024 | 0.366 ± 0.0092 | 0.52 ± 0.046 | 0.426 ± 0.043
